Laboratory results reported in publication PMC3975686 (Journal of proteome research, 2013).
Each block holds one binder with its values, some of them ahead of it.

How the values were obtained:
Assay in all cases: ITC
human RhoGDI = molecular target: T1, human RhoGDI (human, UniProt P52565 1-204)
T1 sequence (looked up): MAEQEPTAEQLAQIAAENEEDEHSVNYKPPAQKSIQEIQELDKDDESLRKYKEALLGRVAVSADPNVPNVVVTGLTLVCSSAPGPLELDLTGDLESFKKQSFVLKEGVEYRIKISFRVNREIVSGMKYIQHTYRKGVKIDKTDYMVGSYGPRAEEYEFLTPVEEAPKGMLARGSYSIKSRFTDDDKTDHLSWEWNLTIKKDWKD

[1] = molecular target: T2, ezrin FERM domain (residues 1-297) (human, UniProt P15311 1-297)
[2] = molecular target: T2, ezrin FERM domain (residues 1-297); remark: listed apart in the source

T2 sequence (P15311 1-297): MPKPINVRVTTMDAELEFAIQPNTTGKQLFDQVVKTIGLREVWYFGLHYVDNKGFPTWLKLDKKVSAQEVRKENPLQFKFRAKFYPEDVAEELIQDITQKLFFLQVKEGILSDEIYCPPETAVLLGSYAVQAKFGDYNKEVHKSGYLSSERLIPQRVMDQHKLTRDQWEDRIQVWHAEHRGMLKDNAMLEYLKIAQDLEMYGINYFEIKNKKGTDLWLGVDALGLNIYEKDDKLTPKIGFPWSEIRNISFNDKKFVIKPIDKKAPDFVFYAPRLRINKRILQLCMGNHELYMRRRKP

Ka (human RhoGDI): 55700 ± 940 M⁻¹
dH (human RhoGDI): -13.29 ± 0.08 kcal/mol
stoichiometry N (human RhoGDI): 0.853 ± 0.0003
B1: human Cdc42C188S, GDP-bound (natural protein)
chain: not shown

dH [2]: -3.98 ± 0.39 kcal/mol
stoichiometry N [2]: 1.33 ± 0.0688
B4: IQGAP2 Repeats (IQGAP2 residues 211-591) (domain or fragment, human, UniProt Q13576 211-591, looked up)
chain: EAALHAAVIAINEAVEKGIAEQTVVTLRNPNAVLTLVDDNLAPEYQKELWDAKKKKEENARLKNSCISEEERDAYEELLTQAEIQGNINKVNRQAAVDHINAVIPEGDPENTLLALKKPEAQLPAVYPFAAAMYQNELFNLQKQNTMNYLAHEELLIAVEMLSAVALLNQALESNDLVSVQNQLRSPAIGLNNLDKAYVERYANTLLSVKLEVLSQGQDNLSWNEIQNCIDMVNAQIQEENDRVVAVGYINEAIDEGNPLRTLETLLLPTANISDVDPAHAQHYQDVLYHAKSQKLGDSESVSKVLWLDEIQQAVDDANVDKDRAKQWVTLVVDVNQCLEGKKSSDILSVLKSSTSNANDIIPECADKYYDALVKAKELKS

Further lines, the binder ahead of its results:

B2: ezrin C-terminal fragment (residues 477-586) (domain or fragment, human, UniProt P15311 477-586, looked up)
chain: VYEPVSYHVQESLQDEGAEPTGYSAELSSEGIRDDRNEEKRITEAEKNERVQRQLLTLSSELSQARDENKRTHNDIIHNENMRQGRDKYKTLRQIRQGNTKQRIDEFEAL
Ka [1]: 1.13e+06 M⁻¹

B3: IQGAP1 Repeats (IQGAP1 residues 156-672), tag removed (domain or fragment, human, UniProt P46940 156-672, looked up)
chain: SLYLFKLGLAPQIQDLYGKVDFTEEEINNMKTELEKYGIQMPAFSKIGGILANELSVDEAALHAAVIAINEAIDRRIPADTFAALKNPNAMLVNLEEPLASTYQDILYQAKQDKMTNAKNRTENSERERDVYEELLTQAEIQGNINKVNTFSALANIDLALEQGDALALFRALQSPALGLRGLQQQNSDWYLKQLLSDKQQKRQSGQTDPLQKEELQSGVDAANSAAQQYQRRLAAVALINAAIQKGVAEKTVLELMNPEAQLPQVYPFAADLYQKELATLQRQSPEHNLTHPELSVAVEMLSSVALINRALESGDVNTVWKQLSSSVTGLTNIEEENCQRYLDELMKLKAQAHAENNEFITWNDIQACVDHVNLVVQEEHERILAIGLINEALDEGDAQKTLQALQIPAAKLEGVLAEVAQHYQDTLIRAKREKAQEIQDESAVLWLDEIQGGIWQSNKDTQEAQKFALGIFAINEAVESGDVGKTLSALRSPDVGLYGVIPECGETYHSDLAEAK
dH [2]: -49.1 ± 15.6 kcal/mol
stoichiometry N [2]: 0.274 ± 0.0243
